Reference: US20190276534A1 (Eli Lilly, published 2019)
Blank lines part the entries; values can stand above or below the binder they belong to.

How the values were obtained:
human PD-1 on CHO cells = human PD-1 on CHO cells (human, UniProt Q15116 25-288); assay: flow cytometry, CHO cells with human PD-1 incubated with antibody 100 nM, then PD-L2-FITC; competitor PD-L2-FITC
[1] = target: T1, human Tim-3-Fc (R&D Systems) (human, UniProt Q8TDQ0 22-130, biotinylated in the phosphatidylserine assay; ruthenylated (sulfo-tag NHS-ester) in the galectin-9 assay); assay: MSD plate competition assay, ruthenylated hTim-3-Fc binding to coated galectin-9-biotin; competitor galectin-9
T1 construct: Bought protein; Supplier is not repeated for the CEACAM1 assay; also called hTIM-3-Fc; hTIM-3-Fc Biotin; not shown: Fc part of the bought fusion protein
T1 sequence: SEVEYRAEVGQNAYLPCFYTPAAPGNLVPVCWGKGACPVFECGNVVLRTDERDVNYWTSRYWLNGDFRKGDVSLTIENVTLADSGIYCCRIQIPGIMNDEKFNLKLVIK

[2] = target: T1, human Tim-3-Fc (R&D Systems); assay: ELISA, human Tim-3-Fc coated, anti-human IgG F(ab')2-HRP detection
[3] = target: T2, cell surface human Tim-3 on Tim-3 DO11.10 cells (human, UniProt Q8TDQ0 22-301); assay: flow cytometry, A488-labelled antibody on Tim-3 DO11.10 cells
T2 construct: whole, on cells; Also used as the target for the mixed lymphocyte reaction rows, where Tim-3 is on primary human cells; also called Tim-3 D011.10 cells
T2 sequence (looked up): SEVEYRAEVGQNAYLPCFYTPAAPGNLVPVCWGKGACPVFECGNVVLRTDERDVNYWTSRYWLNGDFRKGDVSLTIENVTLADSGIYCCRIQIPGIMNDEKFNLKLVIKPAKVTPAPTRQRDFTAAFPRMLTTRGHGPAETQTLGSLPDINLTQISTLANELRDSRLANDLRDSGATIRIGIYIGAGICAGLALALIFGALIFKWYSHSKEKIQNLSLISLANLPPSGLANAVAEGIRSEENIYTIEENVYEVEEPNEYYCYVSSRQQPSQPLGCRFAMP

[4] = target: T1, human Tim-3-Fc (R&D Systems); assay: flow cytometry, blocking of biotinylated hTIM-3-Fc binding to phosphatidylserine on camptothecin-treated DO11.10 cells
[5] = target: T3, human Tim-3-IgV-Fc single arm antigen (SAG) (human); assay: SPR Biacore T100, antibody captured on Human Fab Binder, Tim-3 SAG as analyte, 1:1 Langmuir with mass transport
T3 construct: Construct is only named; its build is not described; also called Tim-3 SAG; not shown: Fc part; second Fc arm of the single arm antigen; not described
T3 sequence (Q8TDQ0 whole entry, looked up): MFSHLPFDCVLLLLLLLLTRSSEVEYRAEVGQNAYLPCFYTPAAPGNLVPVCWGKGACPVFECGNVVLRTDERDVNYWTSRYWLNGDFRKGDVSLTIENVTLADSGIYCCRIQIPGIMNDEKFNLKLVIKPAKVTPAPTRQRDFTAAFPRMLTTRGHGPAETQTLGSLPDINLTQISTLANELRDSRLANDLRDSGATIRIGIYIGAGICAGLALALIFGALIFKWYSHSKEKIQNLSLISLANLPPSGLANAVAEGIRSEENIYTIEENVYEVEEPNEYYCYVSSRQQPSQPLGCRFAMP

hTim-3-IgV-FLAG = target: T4, hTim-3-IgV-FLAG (human, UniProt Q8TDQ0 22-130, density indicating glycosylation at Asn99); assay: SPR Biacore T200, Fab captured, hTim-3-IgV-FLAG as analyte, HBS-EP, 25 C, 1:1 binding
T4 construct: Purified from 293HEK supernatant; also called hTim-3-FLAG; human Tim-3 IgV domain; not shown: FLAG tag
T4 sequence: T1 sequence

Chain of human PD-1 on CHO cells (Q15116 25-288 limits assumed): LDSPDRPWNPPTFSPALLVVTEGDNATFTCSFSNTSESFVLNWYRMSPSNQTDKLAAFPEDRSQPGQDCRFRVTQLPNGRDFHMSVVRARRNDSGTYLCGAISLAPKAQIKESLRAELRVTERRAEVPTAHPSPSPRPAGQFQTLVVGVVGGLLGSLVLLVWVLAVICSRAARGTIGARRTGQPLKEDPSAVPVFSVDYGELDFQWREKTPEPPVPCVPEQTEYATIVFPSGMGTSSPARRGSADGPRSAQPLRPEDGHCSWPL

MFI (PD-L2-FITC) in presence of the antibody (human PD-1 on CHO cells): 24700
B1: Antibody D in IgG1 format (antibody, V domains shown)
VH: QVQLVQSGAEVKKPGSSVKVSCKASGGTFSSYAISWVRQAPGQGLEWMGLIIPMFDTAGYAQKFQGRVAITVDESTSTAYMELSSLRSEDTAVYYCARAEHSSTGTFDYWGQGTLVTVSS
VL: DIQMTQSPSSVSASVGDRVTITCRASQGISSWLAWYQQKPGKAPKLLISAASSLQSGVPSRFSGSGSGTDFTLTISSLQPEDFATYYCQQANHLPFTFGGGTKVEIK
notes: IgG1 format, expressed in yeast; also called Antibody D, in IgG1 format and expressed in yeast

IC50 [1]: 5.6 nM | EC50 [2]: 0.0207 nM | EC50 [3]: 0.09 nM | IC50 [4]: 0.32 nM | Kd [5]: 0.398 nM | koff [5]: 0.000927 s⁻¹ | kon [5]: 2.33e+06 M⁻¹ s⁻¹
B2: Antibody A (anti-Tim-3 Antibody) (antibody, human IgG1, kappa, V domains shown)
VH: EVQLLESGGGLVQPGGSLRLSCAASGFTFSSYYMSWVRQAPGKGLEWVSAISGSGGSTYYADSVKGRFTISRDNSKNTLYLQMNSLRAEDTAVYYCARYARTAFDLWGQGTLVTVSS
VL: DIVMTQSPSSLSASVGDGVTITCQASQDIYNYLNWYQQKPGKAPKLLIYAASSLQSGVPSRFSGSGSGTDFTLTISSLQPEDFATYYCQQANSFPPTFGQGTKLEIKR
notes: Full IgG; also called anti-human Tim-3

Kd (hTim-3-IgV-FLAG): 7.92 nM | koff (hTim-3-IgV-FLAG): 0.00286 s⁻¹ | kon (hTim-3-IgV-FLAG): 362000 M⁻¹ s⁻¹
B3: Antibody A-Fab (Fab, V domains shown)
VH: B2 VH
VL: B2 VL
notes: Made by clipping Antibody A with immobilized papain; the Fc part was not present in the assay; also called Fab for Antibody A
